# Experimental data as given in patent publication US20040176301A1 (CYCLACEL, published 2004).
# Like-named read-outs stand apart in the source and are kept apart here. Square brackets hold non-standard residues; d marks the D form. Ends that are not written are not given here. * marks the point of attachment. Biotin = O=C1N[C@H]2[C@H](CS[C@H]2CCCCC(=O)*)N1; Ahx = NCCCCCC(=O)O
# Columns and labels:
# CDK2/cyclin A = CDK2/cyclin A (UniProt P24941 1-298; P20248 1-432); test: cell-based or functional assay
# [1] = biological target: recombinant CDK2/cyclin A (UniProt P20248 1-432; P24941 1-298); test: cell-based or functional assay
# Cyclin D1 [2] = biological target: T1, Cyclin D1 (UniProt P24385 1-295, limits assumed); test: competitive ELISA: cyclin D1 binding to immobilised biotinyl-Ahx-p21(149-159)
# T1 sequence (P24385 whole entry): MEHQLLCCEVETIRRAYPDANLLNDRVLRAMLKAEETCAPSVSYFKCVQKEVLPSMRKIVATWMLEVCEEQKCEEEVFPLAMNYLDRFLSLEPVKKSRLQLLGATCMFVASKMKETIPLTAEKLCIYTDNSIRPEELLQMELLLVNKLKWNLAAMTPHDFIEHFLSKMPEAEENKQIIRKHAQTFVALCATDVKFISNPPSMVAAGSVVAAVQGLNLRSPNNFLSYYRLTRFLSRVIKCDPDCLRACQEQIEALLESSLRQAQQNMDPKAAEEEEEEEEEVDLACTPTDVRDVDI
# Excerpt: The amount of bound Cyclin D1/Cyclin A was immunodetected and quantified by Turbo-ELISA reagent (PIERCE).
# CDK2/Cyclin E complex [3] = biological target: T2, CDK2/Cyclin E complex (UniProt P24941 1-298; P24864 1-410); test: cell-based or functional assay
# CDK4/Cyclin D1 complex [4] = biological target: T3, CDK4/Cyclin D1 complex (UniProt P11802 1-303; P24385 1-295); test: cell-based or functional assay
# T3 sequence (P11802 other isoform, or with tags, fused parts or gaps, chain 1 of 2): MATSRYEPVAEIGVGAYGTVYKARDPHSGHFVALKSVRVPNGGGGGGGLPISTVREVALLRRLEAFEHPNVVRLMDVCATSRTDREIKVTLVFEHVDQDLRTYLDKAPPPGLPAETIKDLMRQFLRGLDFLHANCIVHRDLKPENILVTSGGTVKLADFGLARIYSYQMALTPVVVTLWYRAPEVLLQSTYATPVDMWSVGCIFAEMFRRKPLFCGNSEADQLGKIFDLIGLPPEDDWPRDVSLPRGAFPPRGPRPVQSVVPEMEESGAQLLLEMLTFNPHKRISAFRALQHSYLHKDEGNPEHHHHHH
# T3 sequence (P24385 whole entry, chain 2 of 2): as the sequence (P24385 whole entry) above
# Cyclin A = Cyclin A (UniProt P20248 173-432, limits assumed); test: competitive cyclin A binding ELISA, competitor: immobilised p21 peptide
# CDK2 = CDK2 (UniProt P24941 1-298); test: pull-down with biotinylated peptide on streptavidin-agarose beads; SDS-PAGE, Western blot
# Excerpt: (§1) The biotinylated peptide was pre-immobilised on streptavidin-agarose beads.
# CDK4 = biological target: T4, CDK4 (UniProt P11802 1-303); test: as above
# T4 construct: also called CDK4-6×His
# T4 sequence (P11802 other isoform, or with tags, fused parts or gaps limits assumed): as the sequence (P11802 other isoform, or with tags, fused parts or gaps, chain 1 of 2) above
# Excerpt: as §1
# Cyclin D1 [5] = biological target: T1, Cyclin D1; test: pull-down, biotinylated peptide on streptavidin-agarose; SDS-PAGE, Western blot
# Excerpt: as §1
# CDK1/Cyclin B complex [6] = biological target: T5, CDK1/Cyclin B complex (UniProt P06493 1-297; P14635 1-433); test: cell-based or functional assay
# T5 sequence (P06493 other isoform, or with tags, fused parts or gaps, chain 1 of 2): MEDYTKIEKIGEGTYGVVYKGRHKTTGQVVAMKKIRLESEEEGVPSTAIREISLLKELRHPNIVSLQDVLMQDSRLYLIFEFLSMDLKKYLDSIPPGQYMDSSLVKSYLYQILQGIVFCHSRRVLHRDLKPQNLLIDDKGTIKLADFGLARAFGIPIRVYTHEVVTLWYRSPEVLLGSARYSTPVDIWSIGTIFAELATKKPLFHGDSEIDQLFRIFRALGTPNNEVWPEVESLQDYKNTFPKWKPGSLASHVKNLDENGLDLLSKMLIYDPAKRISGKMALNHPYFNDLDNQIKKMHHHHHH
# T5 sequence (P14635 other isoform, or with tags, fused parts or gaps, chain 2 of 2): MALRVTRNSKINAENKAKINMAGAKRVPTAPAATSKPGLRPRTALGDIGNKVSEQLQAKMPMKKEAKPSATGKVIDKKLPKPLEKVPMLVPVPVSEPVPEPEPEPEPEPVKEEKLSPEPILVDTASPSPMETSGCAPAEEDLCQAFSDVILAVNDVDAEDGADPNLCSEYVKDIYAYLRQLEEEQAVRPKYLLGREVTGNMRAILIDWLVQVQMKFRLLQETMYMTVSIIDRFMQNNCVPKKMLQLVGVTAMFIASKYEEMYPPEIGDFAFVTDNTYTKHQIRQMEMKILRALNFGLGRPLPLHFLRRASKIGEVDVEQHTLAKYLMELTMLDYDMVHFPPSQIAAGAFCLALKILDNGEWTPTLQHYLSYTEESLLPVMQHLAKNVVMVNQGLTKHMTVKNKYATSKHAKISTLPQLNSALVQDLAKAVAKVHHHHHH
# CDK2/Cyclin E complex [7] = biological target: T2, CDK2/Cyclin E complex; test: cell-based or functional assay; remark: listed apart in the source
# CDK4/Cyclin D1 complex [8] = biological target: T3, CDK4/Cyclin D1 complex; test: cell-based or functional assay; remark: listed apart in the source
# CDK1/Cyclin B complex [9] = biological target: T5, CDK1/Cyclin B complex; test: pull-down with immobilised peptide
# cyclin B = cyclin B (UniProt P14635 1-433); test: pull-down with immobilised peptide
# Sequence of cyclin B (P14635 whole entry): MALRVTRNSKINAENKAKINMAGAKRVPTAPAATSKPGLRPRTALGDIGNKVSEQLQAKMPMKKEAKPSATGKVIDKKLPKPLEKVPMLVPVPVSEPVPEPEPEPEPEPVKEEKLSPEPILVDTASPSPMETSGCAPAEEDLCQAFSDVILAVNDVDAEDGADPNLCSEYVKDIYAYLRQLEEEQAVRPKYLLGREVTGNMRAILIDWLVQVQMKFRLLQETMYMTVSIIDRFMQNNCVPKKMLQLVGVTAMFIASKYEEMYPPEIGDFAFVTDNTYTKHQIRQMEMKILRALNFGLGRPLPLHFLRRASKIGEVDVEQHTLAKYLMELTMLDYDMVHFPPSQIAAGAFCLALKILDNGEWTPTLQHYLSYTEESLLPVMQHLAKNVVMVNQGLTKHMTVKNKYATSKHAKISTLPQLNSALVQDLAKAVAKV
binder,measurement,setting,value
H-HAKQRLIF-NH2 [H-His-Ala-Lys-Gln-Arg-Leu-Ile-Phe-NH2],"Relative activity, Kinase Inhibition (CDK2/cyclin A kinase assay, pRb substrate, [ATP] = 100 µM)",CDK2/cyclin A,< 0.1 relative to H-His-Ala-Lys-Arg-Arg-Leu-Ile-Phe-NH2 (=1)
H-HAKKRLIF-NH2 [H-His-Ala-Lys-Lys-Arg-Leu-Ile-Phe-NH2],"Relative activity, Kinase Inhibition (CDK2/cyclin A kinase assay, pRb substrate, [ATP] = 100 µM)",CDK2/cyclin A,0.8 relative to H-His-Ala-Lys-Arg-Arg-Leu-Ile-Phe-NH2 (=1)
Ac-RRLNF-NH2 [Ac-Arg-Arg-Leu-Asn-Phe-NH2],Kinase IC50 (µM) CyclinA/CDK2,[1],37.2 µM
PVKRRLDL-NH2 (Derived from E2F1) [E2F1 peptide PVKRRLDL-NH2],IC50,Cyclin D1 [2],> 100 µM
same,"% Inhibition, cyclin E/CDK2 kinase",CDK2/Cyclin E complex [3],74%
same,"IC50, cyclin E/CDK2 kinase",CDK2/Cyclin E complex [3],2.1 µM
same,"% Inhibition, cyclin D1/CDK4 kinase",CDK4/Cyclin D1 complex [4],58%
same,"IC50, cyclin D1/CDK4 kinase",CDK4/Cyclin D1 complex [4],99 µM
HSKRRLDL-NH2 [P21 C-terminus-LDL hybrid HSKRRLDL-NH2],IC50,Cyclin D1 [2],> 200 µM
same,"% Inhibition, cyclin E/CDK2 kinase",CDK2/Cyclin E complex [3],74%
same,"% Inhibition, cyclin D1/CDK4 kinase",CDK4/Cyclin D1 complex [4],24%
"GST-pRb(772-928) (other, UniProt P06400 772-928, looked up, range 772-928; Limits of the pRb part are printed inconsistently; also called GST-Rb; GST-Rb(772-928); not shown: glutathione S-transferase (GST) fusion partner) ASTRPPTLSPIPHIPRSPYKFPSSPLRIPGGNIYISPLKSPYKISEGLPTPTKMTPRSRILVSIGESFGTSEKFQKINQMVCNSDRVLKRSAEGSNPPKPLKKLRFDIEGSDEADGSKHLPGESKFQQKLAEMTSTRTRMQKQKMNDSMDTSNKEEK",IC50,Cyclin A,9 µM
"Biotin-[Ahx]DFYHSKRRLIF-NH2 (SMILES CC[C@H](C)[C@H](NC(=O)[C@H](CC(C)C)NC(=O)[C@H](CCCNC(=N)N)NC(=O)[C@H](CCCNC(=N)N)NC(=O)[C@H](CCCCN)NC(=O)[C@H](CO)NC(=O)[C@H](Cc1c[nH]cn1)NC(=O)[C@H](Cc1ccc(O)cc1)NC(=O)[C@H](Cc1ccccc1)NC(=O)[C@H](CC(=O)O)NC(=O)CCCCCNC(=O)CCCC[C@@H]1SC[C@@H]2NC(=O)N[C@@H]21)C(=O)N[C@@H](Cc1ccccc1)C(N)=O, immobilised on streptavidin) [biotinyl-Ahx-Asp-Phe-Tyr-His-Ser-Lys-Arg-Arg-Leu-Ile-Phe-NH]",binding result,CDK2,no binding
same,binding result,CDK4,no binding
same,binding result,Cyclin D1 [5],binds
DFYHSKRRLIFS-NH2 [p21 (149-160) DFYHSKRRLIFS-NH2],"IC50, CDK1-Cyclin B phosphorylation of GST-Rb",CDK1/Cyclin B complex [6],200 µM
same,"IC50, CDK1-Cyclin B phosphorylation of Histone 1",CDK1/Cyclin B complex [6],> 200 µM
same,"% Inhibition, cyclin E/CDK2 kinase",CDK2/Cyclin E complex [7],80%
same,"IC50, cyclin E/CDK2 kinase, GST-pRb",CDK2/Cyclin E complex [7],4.5 µM
same,"% Inhibition, cyclin D1/CDK4 kinase",CDK4/Cyclin D1 complex [8],70%
same,"IC50, cyclin D1/CDK4 kinase, GST-pRb",CDK4/Cyclin D1 complex [8],20 µM
same,binding result,CDK1/Cyclin B complex [9],no binding
same,binding result,cyclin B,no binding
